Data as given in paper doi:10.1101/847772.

Target: biotin-labelled M3C phenomycin (Streptomyces fervens MA 564-Cl)
Assay: BLI

Question: For human 80S ribosome (complex), which Kd is on record?
Answer: Its Kd is 0.023 nM.
